Source: article PMC8504119

Molecular target: tetrameric biotin non-binding streptavidin 'Dead' (SA-4D) (UniProt P22629)
Test: SDS-PAGE without boiling; refolded, purified SA-A and SA-D; samples not subjected to thermal denaturation keep the tetramer

- stoichiometry N: 4
Substance: tetrameric biotin non-binding streptavidin 'Dead' (SA-4D) (from UniProt P22629 25-183) (natural protein)
